The values that follow come from US20220267464A1 (Hoffmann-La Roche, published 2022).

For this assay, the target named is T1, human CEACAM5 (carcinoembryonic antigen, CEA) on cells (human, UniProt P06731 35-685).
T1 construct: endogenous on MKN45 gastric adenocarcinoma cells; full-length cDNA stably transfected in the CHO-K1 clones; also called huCEACAM5; MKN45 cells
T1 sequence: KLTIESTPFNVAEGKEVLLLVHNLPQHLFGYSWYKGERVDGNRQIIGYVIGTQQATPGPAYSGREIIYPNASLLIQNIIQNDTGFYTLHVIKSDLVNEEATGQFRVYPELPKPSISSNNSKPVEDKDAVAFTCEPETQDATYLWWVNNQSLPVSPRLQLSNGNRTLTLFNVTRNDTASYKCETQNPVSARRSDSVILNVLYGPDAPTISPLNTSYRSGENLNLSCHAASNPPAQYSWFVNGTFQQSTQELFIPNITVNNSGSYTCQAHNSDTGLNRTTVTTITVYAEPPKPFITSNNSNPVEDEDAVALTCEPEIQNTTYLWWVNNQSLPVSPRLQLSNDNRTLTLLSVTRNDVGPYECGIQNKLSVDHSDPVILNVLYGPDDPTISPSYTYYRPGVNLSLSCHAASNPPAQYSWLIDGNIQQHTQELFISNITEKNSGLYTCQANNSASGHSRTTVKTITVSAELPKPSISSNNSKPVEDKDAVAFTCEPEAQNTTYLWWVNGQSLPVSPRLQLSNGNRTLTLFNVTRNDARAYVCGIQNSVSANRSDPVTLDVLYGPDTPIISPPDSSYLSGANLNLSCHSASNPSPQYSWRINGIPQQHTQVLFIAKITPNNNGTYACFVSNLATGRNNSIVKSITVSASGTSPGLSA
Put plainly: flow cytometry, MKN45 cells. More on the design: AUC: unit not given beside the values. (In general: Flow cytometry measures light scatter and fluorescence of single cells or particles in a stream.)

B1: P1AE3107 (antibody, IgG1, V domains shown)
VH: QVQLVQSGAEVKKPGASVKVSCKASGFNIKDSYMHWVRQAPGQGLEWMGWIDPENGDTEYAPKFQGRVTMTTDTSISTAYMELSRLRSDDTAVYYCNEGTPTGPYYFDYWGQGTLVTVSS
VL: EIQMTQSPSSLSASVGDRVTITCRASSSVPYMHWYQQKPGKAPKLLIYSTSNLASGVPSRFSGSGSGTDFTLTISSVQPEDFATYYCQQRSSYPLTFGGGTKLEIK
notes: huIgG1 P329G LALA; also called MFE-H24 / MFE-L27; huMFE23-L27-H24
By EC50 is commonly meant the midpoint of the concentration-response curve. Molecule B1 yielded an AUC of 91200 and an EC50 of 5.83 nM.

B2: P1AE3090 (antibody, IgG1, V domains shown)
VH: QVQLVQSGAEVKKPGSSVKVSCKASGFNIKDSYMHWVRQAPGQGLEWMGWIDPENGDTEYAPKFQGRVTITTDESTSTAYMELSSLRSEDTAVYYCNEGTPTGPYYFDYWGQGTLVTVSS
VL: EIQMTQSPSSLSASVGDRVTITCRASSSVPYMHWLQQKPGKAPKLLIYSTSSLQSGVPSRFSGSGSGTDFTLTISSVQPEDFATYYCQQRSSYPLTFGGGTKLEIK
notes: huIgG1 P329G LALA; also called MFE-H29 / MFE-L29
B2 gave an AUC of 61800 and an EC50 of 42 nM.

B3: P1AE3091 (antibody, IgG1, V domains shown)
VH: QVQLVQSGAEVKKPGASVKVSCKASGFNIKDSYMHWVRQAPGQGLEWMGWIDPENGDTEYAPKFQGRVTMTRDTSISTAYMELSRLRSDDTAVYYCNEGTPTGPYYFDYWGQGTLVTVSS
VL: EIQMTQSPSSLSASVGDRVTITCRASSSVPYMHWLQQKPGKAPKLLIYSTSSLQSGVPSRFSGSGSGTDFTLTISSVQPEDFATYYCQQRSSYPLTFGGGTKLEIK
notes: huIgG1 P329G LALA; also called MFE-H28 / MFE-L29
Molecule B3 yielded an AUC of 83100 and an EC50 of 14.6 nM.

B4: P1AE3093 (antibody, IgG1, V domains shown)
VH: QVQLVQSGAEVKKPGASVKVSCKASGFNIKDSYMHWVRQAPGQGLEWMGWIDPENGGTNYAQKFQGRVTMTTDTSISTAYMELSRLRSDDTAVYYCNEGTPTGPYYFDYWGQGTLVTVSS
VL: EIQMTQSPSSLSASVGDRVTITCRASSSVPYMHWLQQKPGKAPKLLIYSTSSLQSGVPSRFSGSGSGTDFTLTISSVQPEDFATYYCQQRSSYPLTFGGGTKLEIK
notes: huIgG1 P329G LALA; also called MFE-H26 / MFE-L29
Consider B4, for which the AUC stood at 68100 and the response was half-maximal at 16.1 nM (EC50).

B5: P1AE3100 (antibody, IgG1, V domains shown)
VH: QVQLVQSGAEVKKPGASVKVSCKASGYTFKDSYMHWVRQAPGQGLEWMGWIDPENGDTEYAPKFQGRVTMTTDTSISTAYMELSRLRSDDTAVYYCNEGTPTGPYYFDYWGQGTLVTVSS
VL: EIQMTQSPSSLSASVGDRVTITCRASSSVPYMHWLQQKPGKAPKLLIYSTSNLASGVPSRFSGSGSGTDFTLTISSVQPEDFATYYCQQRSSYPLTFGGGTKLEIK
notes: huIgG1 P329G LALA; also called MFE-H25 / MFE-L28; huMFE23-L28-H25
B5: the AUC is 74100 and the response was half-maximal at 9.89 nM (EC50).

B6: P1AE3099 (antibody, IgG1, V domains shown)
VH: QVQLVQSGAEVKKPGASVKVSCKASGFNIKDSYMHWVRQAPGQGLEWMGWIDPENGGTNYAQKFQGRVTMTTDTSISTAYMELSRLRSDDTAVYYCNEGTPTGPYYFDYWGQGTLVTVSS
VL: EIQMTQSPSSLSASVGDRVTITCRASSSVPYMHWLQQKPGKAPKLLIYSTSNLASGVPSRFSGSGSGTDFTLTISSVQPEDFATYYCQQRSSYPLTFGGGTKLEIK
notes: huIgG1 P329G LALA; also called MFE-H26 / MFE-L28
Consider B6, for which the AUC amounted to 95300 and a half-maximal effect (EC50) was put at 10.2 nM.

B7: P1AE3120 (antibody, IgG1, V domains shown)
VH: QVQLVQSGAEVKKPGSSVKVSCKASGFNIKDSYMHWVRQAPGQGLEWMGWIDPENGDTEYAPKFQGRVTITTDESTSTAYMELSSLRSEDTAVYYCNEGTPTGPYYFDYWGQGTLVTVSS
VL: DIQMTQSPSSLSASVGDRVTITCRASSSVSYMHWYQQKPGKAPKLLIYSTSNLASGVPSRFSGSGSGTDFTLTISSLQPEDFATYYCQQRSSYPLTFGGGTKLEIK
notes: huIgG1 P329G LALA; also called MFE-H29 / MFE-L24
For the molecule B7, the AUC stood at 24200 and the half-maximal effective concentration (EC50) is 12.4 nM.

B8: P1AE3095 (antibody, IgG1, V domains shown)
VH: QVQLVQSGAEVKKPGASVKVSCKASGFNIKDSYMHWVRQAPGQGLEWMGWIDPENGDTEYAPKFQGRVTMTTDTSISTAYMELSRLRSDDTAVYYCNEGTPTGPYYFDYWGQGTLVTVSS
VL: EIQMTQSPSSLSASVGDRVTITCRASSSVPYMHWLQQKPGKAPKLLIYSTSSLQSGVPSRFSGSGSGTDFTLTISSVQPEDFATYYCQQRSSYPLTFGGGTKLEIK
notes: huIgG1 P329G LALA; also called MFE-H24 / MFE-L29
B8 showed an AUC of 84900 and a 50% effective concentration (EC50) of 11.1 nM.

B9: P1AE3097 (antibody, IgG1, V domains shown)
VH: QVQLVQSGAEVKKPGASVKVSCKASGFNIKDSYMHWVRQAPGQGLEWMGWIDPENGDTEYAPKFQGRVTMTRDTSISTAYMELSRLRSDDTAVYYCNEGTPTGPYYFDYWGQGTLVTVSS
VL: EIQMTQSPSSLSASVGDRVTITCRASSSVPYMHWLQQKPGKAPKLLIYSTSNLASGVPSRFSGSGSGTDFTLTISSVQPEDFATYYCQQRSSYPLTFGGGTKLEIK
notes: huIgG1 P329G LALA; also called MFE-H28 / MFE-L28; huMFE23-L28-H28
In turn, B9 registered an AUC of 98700 and an EC50 of 6.45 nM.

B10: P1AE3114 (antibody, IgG1, V domains shown)
VH: QVQLVQSGAEVKKPGSSVKVSCKASGFNIKDSYMHWVRQAPGQGLEWMGWIDPENGDTEYAPKFQGRVTITTDESTSTAYMELSSLRSEDTAVYYCNEGTPTGPYYFDYWGQGTLVTVSS
VL: EIQMTQSPSSLSASVGDRVTITCRASSSVSYMHWYQQKPGKAPKLLIYSTSNLASGVPSRFSGSGSGTDFTLTISSLQPEDFATYYCQQRSSYPLTFGGGTKLEIK
notes: huIgG1 P329G LALA; also called MFE-H29 / MFE-L25
The molecule B10 gave an AUC of 12800 and an EC50 of 30.6 nM.

B11: P1AE3119 (antibody, IgG1, V domains shown)
VH: QVQLVQSGAEVKKPGASVKVSCKASGFNIKDSYMHWVRQAPGQGLEWMGWIDPENGDTEYAPKFQGRVTMTTDTSISTAYMELSRLRSDDTAVYYCNEGTPTGPYYFDYWGQGTLVTVSS
VL: EIQMTQSPSSLSASVGDRVTITCRASSSVSYMHWYQQKPGKAPKLLIYSTSNLASGVPSRFSGSGSGTDFTLTISSLQPEDFATYYCQQRSSYPLTFGGGTKLEIK
notes: huIgG1 P329G LALA; also called MFE-H24 / MFE-L25
In turn, B11 gave an AUC of 10300 and a half-maximal effective concentration (EC50) of 41.9 nM.

B12: P1AE3103 (antibody, IgG1, V domains shown)
VH: QVQLVQSGAEVKKPGASVKVSCKASGFNIKDSYMHWVRQAPGQGLEWMGWIDPENGDTEYAPKFQGRVTMTRDTSISTAYMELSRLRSDDTAVYYCNEGTPTGPYYFDYWGQGTLVTVSS
VL: EIQMTQSPSSLSASVGDRVTITCRASSSVPYMHWYQQKPGKAPKLLIYSTSNLASGVPSRFSGSGSGTDFTLTISSVQPEDFATYYCQQRSSYPLTFGGGTKLEIK
notes: huIgG1 P329G LALA; also called MFE-H28 / MFE-L27; huMFE23-L27-H28
As to B12, the AUC was 92400 and a half-maximal effect (EC50) was put at 5.88 nM.

B13: P1AE3105 (antibody, IgG1, V domains shown)
VH: QVQLVQSGAEVKKPGASVKVSCKASGFNIKDSYMHWVRQAPGQGLEWMGWIDPENGGTNYAQKFQGRVTMTTDTSISTAYMELSRLRSDDTAVYYCNEGTPTGPYYFDYWGQGTLVTVSS
VL: EIQMTQSPSSLSASVGDRVTITCRASSSVPYMHWYQQKPGKAPKLLIYSTSNLASGVPSRFSGSGSGTDFTLTISSVQPEDFATYYCQQRSSYPLTFGGGTKLEIK
notes: huIgG1 P329G LALA; also called MFE-H26 / MFE-L27; huMFE23-L27-H26
Take B13: the AUC is 55900 and the EC50 came to 7.92 nM.

B14: P1AE3096 (antibody, IgG1, V domains shown)
VH: QVQLVQSGAEVKKPGSSVKVSCKASGFNIKDSYMHWVRQAPGQGLEWMGWIDPENGDTEYAPKFQGRVTITTDESTSTAYMELSSLRSEDTAVYYCNEGTPTGPYYFDYWGQGTLVTVSS
VL: EIQMTQSPSSLSASVGDRVTITCRASSSVPYMHWLQQKPGKAPKLLIYSTSNLASGVPSRFSGSGSGTDFTLTISSVQPEDFATYYCQQRSSYPLTFGGGTKLEIK
notes: huIgG1 P329G LALA; also called MFE-H29 / MFE-L28
As to B14, the AUC amounted to 87800 and the midpoint of the response, the EC50, lay at 10.5 nM.

B15: P1AE3102 (antibody, IgG1, V domains shown)
VH: QVQLVQSGAEVKKPGSSVKVSCKASGFNIKDSYMHWVRQAPGQGLEWMGWIDPENGDTEYAPKFQGRVTITTDESTSTAYMELSSLRSEDTAVYYCNEGTPTGPYYFDYWGQGTLVTVSS
VL: EIQMTQSPSSLSASVGDRVTITCRASSSVPYMHWYQQKPGKAPKLLIYSTSNLASGVPSRFSGSGSGTDFTLTISSVQPEDFATYYCQQRSSYPLTFGGGTKLEIK
notes: huIgG1 P329G LALA; also called MFE-H29 / MFE-L27; huMFE23-L27-H29
As to B15, the AUC was found to be 91500 and the response was half-maximal at 5.41 nM (EC50).

B16: P1AE3115 (antibody, IgG1, V domains shown)
VH: QVQLVQSGAEVKKPGASVKVSCKASGFNIKDSYMHWVRQAPGQGLEWMGWIDPENGDTEYAPKFQGRVTMTRDTSISTAYMELSRLRSDDTAVYYCNEGTPTGPYYFDYWGQGTLVTVSS
VL: EIQMTQSPSSLSASVGDRVTITCRASSSVSYMHWYQQKPGKAPKLLIYSTSNLASGVPSRFSGSGSGTDFTLTISSLQPEDFATYYCQQRSSYPLTFGGGTKLEIK
notes: huIgG1 P329G LALA; also called MFE-H28 / MFE-L25
As to B16, the AUC stood at 10200 and the EC50 was determined as 20.7 nM.

B17: P1AE3094 (antibody, IgG1, V domains shown)
VH: QVQLVQSGAEVKKPGASVKVSCKASGYTFKDSYMHWVRQAPGQGLEWMGWIDPENGDTEYAPKFQGRVTMTTDTSISTAYMELSRLRSDDTAVYYCNEGTPTGPYYFDYWGQGTLVTVSS
VL: EIQMTQSPSSLSASVGDRVTITCRASSSVPYMHWLQQKPGKAPKLLIYSTSSLQSGVPSRFSGSGSGTDFTLTISSVQPEDFATYYCQQRSSYPLTFGGGTKLEIK
notes: huIgG1 P329G LALA; also called MFE-H25 / MFE-L29
B17 yielded an AUC of 6910 and an EC50 of 47.6 nM.

B18: P1AE3101 (antibody, IgG1, V domains shown)
VH: QVQLVQSGAEVKKPGASVKVSCKASGFNIKDSYMHWVRQAPGQGLEWMGWIDPENGDTEYAPKFQGRVTMTTDTSISTAYMELSRLRSDDTAVYYCNEGTPTGPYYFDYWGQGTLVTVSS
VL: EIQMTQSPSSLSASVGDRVTITCRASSSVPYMHWLQQKPGKAPKLLIYSTSNLASGVPSRFSGSGSGTDFTLTISSVQPEDFATYYCQQRSSYPLTFGGGTKLEIK
notes: huIgG1 P329G LALA; also called MFE-H24 / MFE-L28; huMFE23-L28-H24
In the case of B18, the AUC came out at 104000 and the EC50 stood at 6.58 nM.
